Results reported in patent US20160136295A1, “BIOMARKERS FOR TREATMENT WITH ANTI-TUBULIN CHEMOTHERAPEUTIC COMPOUNDS” (GENENTECH, INC., priority 2012, published 2016).

B1: MAPK10: purified recombinant kinase purchased from Invitrogen (protein, UniProt P53779 1-464, looked up)
Mitogen-activated protein …: MSLHFLYYCSEPTLDVKIAFCQGFDKQVDVSYIAKHYNMSKSKVDNQFYSVEVGDSTFTVLKRYQNLKPIGSGAQGIVCAAYDAVLDRNVAIKKLSRPFQNQTHAKRAYRELVLMKCVNHKNIISLLNVFTPQKTLEEFQDVYLVMELMDANLCQVIQMELDHERMSYLLYQMLCGIKHLHSAGIIHRDLKPSNIVVKSDCTLKILDFGLARTAGTSFMMTPYVVTRYYRAPEVILGMGYKENVDIWSVGCIMGEMVRHKILFPGRDYIDQWNKVIEQLGTPCPEFMKKLQPTVRNYVENRPKYAGLTFPKLFPDSLFPADSEHNKLKASQARDLLSKMLVIDPAKRISVDDALQHPYINVWYDPAEVEAPPPQIYDKQLDEREHTIEEWKELIYKEVMNSEEKTKNGVVKGQPSPSGAAVNSSESLPPSSSVNDISSMSTDQTLASDTDSSLEASAGPLGCCR
B2: MAPK11: purified recombinant kinase purchased from Invitrogen (protein, UniProt Q15759 1-364, looked up)
Mitogen-activated protein …: MSGPRAGFYRQELNKTVWEVPQRLQGLRPVGSGAYGSVCSAYDARLRQKVAVKKLSRPFQSLIHARRTYRELRLLKHLKHENVIGLLDVFTPATSIEDFSEVYLVTTLMGADLNNIVKCQALSDEHVQFLVYQLLRGLKYIHSAGIIHRDLKPSNVAVNEDCELRILDFGLARQADEEMTGYVATRWYRAPEIMLNWMHYNQTVDIWSVGCIMAELLQGKALFPGSDYIDQLKRIMEVVGTPSPEVLAKISSEHARTYIQSLPPMPQKDLSSIFRGANPLAIDLLGRMLVLDSDQRVSAAEALAHAYFSQYHDPEDEPEAEPYDESVEAKERTLEEWKELTYQEVLSFKPPEPPKPPGSLEIEQ
B3: MAPK12: purified recombinant kinase purchased from Invitrogen (protein, UniProt P53778 1-367, looked up)
Mitogen-activated protein …: MSSPPPARSGFYRQEVTKTAWEVRAVYRDLQPVGSGAYGAVCSAVDGRTGAKVAIKKLYRPFQSELFAKRAYRELRLLKHMRHENVIGLLDVFTPDETLDDFTDFYLVMPFMGTDLGKLMKHEKLGEDRIQFLVYQMLKGLRYIHAAGIIHRDLKPGNLAVNEDCELKILDFGLARQADSEMTGYVVTRWYRAPEVILNWMRYTQTVDIWSVGCIMAEMITGKTLFKGSDHLDQLKEIMKVTGTPPAEFVQRLQSDEAKNYMKGLPELEKKDFASILTNASPLAVNLLEKMLVLDAEQRVTAGEALAHPYFESLHDTEDEPQVQKYDDSFDDVDRTLDEWKRVTYKEVLSFKPPRQLGARVSKETPL
B4: MAPK13: purified recombinant kinase purchased from Invitrogen (protein, UniProt O15264 1-365, looked up)
Mitogen-activated protein …: MSLIRKKGFYKQDVNKTAWELPKTYVSPTHVGSGAYGSVCSAIDKRSGEKVAIKKLSRPFQSEIFAKRAYRELLLLKHMQHENVIGLLDVFTPASSLRNFYDFYLVMPFMQTDLQKIMGMEFSEEKIQYLVYQMLKGLKYIHSAGVVHRDLKPGNLAVNEDCELKILDFGLARHADAEMTGYVVTRWYRAPEVILSWMHYNQTVDIWSVGCIMAEMLTGKTLFKGKDYLDQLTQILKVTGVPGTEFVQKLNDKAAKSYIQSLPQTPRKDFTQLFPRASPQAADLLEKMLELDVDKRLTAAQALTHPFFEPFRDPEEETEAQQPFDDSLEHEKLTVDEWKQHIYKEIVNFSPIARKDSRRRSGMKL
B5: MAPK8: purified recombinant kinase purchased from Invitrogen (protein, UniProt P45983 1-427, looked up)
Mitogen-activated protein …: MSRSKRDNNFYSVEIGDSTFTVLKRYQNLKPIGSGAQGIVCAAYDAILERNVAIKKLSRPFQNQTHAKRAYRELVLMKCVNHKNIIGLLNVFTPQKSLEEFQDVYIVMELMDANLCQVIQMELDHERMSYLLYQMLCGIKHLHSAGIIHRDLKPSNIVVKSDCTLKILDFGLARTAGTSFMMTPYVVTRYYRAPEVILGMGYKENVDLWSVGCIMGEMVCHKILFPGRDYIDQWNKVIEQLGTPCPEFMKKLQPTVRTYVENRPKYAGYSFEKLFPDVLFPADSEHNKLKASQARDLLSKMLVIDASKRISVDEALQHPYINVWYDPSEAEAPPPKIPDKQLDEREHTIEEWKELIYKEVMDLEERTKNGVIRGQPSPLGAAVINGSQHPSSSSSVNDVSSMSTDPTLASDTDSSLEAAAGPLGCCR

test system: Mcl-1 S121; assay: In vitro kinase reactions: percent phosphorylation of full-length recombinant Mcl-1 at S121; type: biochemical, human; settings: CDK1 + kinase panel reactions, average of INJ1 and INJ2
Procedure: (§1) To determine the suitability of residues in Mcl-1 as kinase substrates, 10 μM of Mcl-1 was incubated with selected kinase at enzyme concentrations between 25 and 100 nM. For these reactions the Mcl-1 was dialyzed into 20 mM Phosphate, 50 mM Tris pH 7.5 150 mM NaCl, 5 mM DTT and 0.5% CHAPS. The protein solution was further supplemented with MgCl2 to 10 mM and ATP to 1 mM prior to addition of kinase. Purified recombinant kinases were purchased from Invitrogen Co. (Carlsbad, Calif.).
(§2) 10 μl of each of the Mcl-1 kinase reactions (100 pmol) were loaded onto a 4-12% Bis-Tris gel for separation by SDS-PAGE after reduction. Mcl-1 bands were excised from the gel, dehydrated (50% acetonitrile in 50 mM ammonium bicarbonate then 100% acetonitrile washes), and incubated with 0.2 μg trypsin overnight at 37° C.
(§3) Samples were injected in duplicate via autosampler onto a nanoAcquity® UPLC (Waters, Milford, Mass.) and analyzed on-line via nanospray ionization into an LTQ-Orbitrap® mass spectrometer at a concentration of 300 fmol synthetic peptide mix per injection. Areas were integrated for the isotopic and kinase phosphorylated peptides, and compared to their non-phosphorylated peptide counterparts to obtain percent phosphorylation values.

Molecule	Percent phosphorylation S121, AVE [%]
B1	32.85
B2	10.11
B3	18.12
B4	20.30
B5	70.06

same assay, conditions: CDK1 + kinase panel reactions, sample injection 1

Molecule	Percent phosphorylation S121, INJ1 [%]
B1	32.82
B2	10.45
B3	18.73
B4	20.33
B5	68.97

same assay, conditions: CDK1 + kinase panel reactions, sample injection 2

Molecule	Percent phosphorylation S121, INJ2 [%]
B1	32.88
B2	9.76
B3	17.51
B4	20.26
B5	71.14

same assay, conditions: single kinase reactions, average of INJ1 and INJ2

Molecule	Percent phosphorylation S121, AVE [%]
B1	13.14
B2	5.66
B3	11.00
B4	8.21
B5	21.56

same assay, conditions: single kinase reactions, sample injection 1

Molecule	Percent phosphorylation S121, INJ1 [%]
B1	11.61
B2	5.84
B3	10.71
B4	10.06
B5	17.66

same assay, conditions: single kinase reactions, sample injection 2

Molecule	Percent phosphorylation S121, INJ2 [%]
B1	14.67
B2	5.48
B3	11.28
B4	6.35
B5	25.46

test system: Mcl-1 T163; assay: In vitro kinase reactions: percent phosphorylation of full-length recombinant Mcl-1 at T163; type: biochemical, human; settings: single kinase reactions, average of INJ1 and INJ2
Procedure: as §1, §2, §3

Molecule	Percent phosphorylation T163, AVE [%]
B1	43.90
B2	51.87
B3	53.34
B4	64.78
B5	56.77

same assay, conditions: single kinase reactions, sample injection 1

Molecule	Percent phosphorylation T163, INJ1 [%]
B1	45.09
B2	53.70
B3	55.05
B4	65.53
B5	60.42

same assay, conditions: single kinase reactions, sample injection 2

Molecule	Percent phosphorylation T163, INJ2 [%]
B1	42.70
B2	50.04
B3	51.63
B4	64.03
B5	53.11

test system: Mcl-1 S159/T163; assay: In vitro kinase reactions: percent phosphorylation of full-length recombinant Mcl-1 at S159+T163; type: biochemical, human; settings: % phos on S159+T163, CDK1 + kinase panel reactions, average
Procedure: as §1, §2, §3

Molecule	Percent phosphorylation S159/T163, AVE [%]
B1	4.10
B2	0.94
B3	0.00
B4	0.56
B5	9.45

same assay, conditions: % phos on S159+T163, CDK1 + kinase panel reactions, sample injection 1

Molecule	Percent phosphorylation S159/T163, INJ1 [%]
B1	3.86
B2	1.15
B3	0.00
B4	0.74
B5	10.13

same assay, conditions: % phos on S159+T163, CDK1 + kinase panel reactions, sample injection 2

Molecule	Percent phosphorylation S159/T163, INJ2 [%]
B1	4.33
B2	0.73
B3	0.00
B4	0.38
B5	8.76

same assay, conditions: % phos on S159+T163, single kinase reactions, average

Molecule	Percent phosphorylation S159/T163, AVE [%]
B1	16.83
B2	2.56
B3	0.00
B4	4.70
B5	16.98

same assay, conditions: % phos on S159+T163, single kinase reactions, sample injection 1

Molecule	Percent phosphorylation S159/T163, INJ1 [%]
B1	16.73
B2	3.06
B3	0.00
B4	5.77
B5	15.54

same assay, conditions: % phos on S159+T163, single kinase reactions, sample injection 2

Molecule	Percent phosphorylation S159/T163, INJ2 [%]
B1	16.92
B2	2.06
B3	0.00
B4	3.62
B5	18.42

test system: Mcl-1 T92; assay: In vitro kinase reactions: percent phosphorylation of full-length recombinant Mcl-1 at T92; type: biochemical, human; settings: single kinase reactions, average; peak areas of 0 and 1P, triple charged state
Procedure: as §1, §2, §3

Molecule	Percent phosphorylation T92, AVE [%]
B1	9.35
B2	3.27
B3	69.58
B4	22.75
B5	6.04

same assay, conditions: single kinase reactions, sample injection 1; peak areas of 0 and 1P, triple charged state

Molecule	Percent phosphorylation T92, INJ1 [%]
B1	10.29
B2	2.59
B3	71.57
B4	22.96
B5	5.99

same assay, conditions: single kinase reactions, sample injection 2; peak areas of 0 and 1P, triple charged state

Molecule	Percent phosphorylation T92, INJ2 [%]
B1	8.41
B2	3.95
B3	67.59
B4	22.54
B5	6.08
